Experimental data as given in the supplement of paper PMC12338614.
± gives the uncertainty stated by the source.

B1: library; numbered along this chain (parent)
chain: MEVVDPQQLGMFTEGELMSVGMDTFIHRIDSTEVIYQPRRKRAKLIGKYLMGDLLGEGSYGKVKEVLDSETLCRRAVKILKKKKLRRIPNGEANVKKEIQLLRRLRHKNVIQLVDVLYNEEKQKMYMVMEYCVCGMQEMLDSVPEKRFPVCQAHGYFCQLIDGLEYLHSQGIVHKDIKPGNLLLTTGGTLKISDLGVAEALHPFAADDTCRTSQGSPAFQPPEIANGLDTFSGFKVDIWSAGVTLYNITTGLYPFEGDNIYKLFENIGKGSYAIPGDCGPPLSDLLKGMLEYEPAKRFSIRQIRQHSWFRKKHPPAEAPVPIPPSPDTKDRWRSMTVVPYLEDLHGADEDEDLFDIEDDIIYTQDFTVPGQVPEEEASHNGQRRGLPKAVCMNGTEAAQLSTKSRAEGRAPNPARKACSASSKIRRLSACKQQ

Variants of: B1
Experiment: STK11 functional score (HeLa growth suppression), rescaled enrichment; synonymous median = 1, nonsense median = 0 (normalised score)
Conditions: with HeLa; variant type: missense
In short: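 Codon-randomised (POPCode) libraries of codon-optimised STK11 were integrated by Bxb1 at an AAVS1 landing pad in HeLa, in three regions each transfected three times. Integrants (BFP-negative, mCherry-positive) were FACS-sorted 4–5 days after electroporation and grown about two weeks; tiled gDNA amplicons were sequenced on NextSeq (~2 million reads per tile). The functional score is the wild-type-corrected post/pre-selection log ratio, rescaled to synonymous and nonsense medians, merged over codons and replicate transfections, with bootstrapped error.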

Variant | STK11 functional score
MEVVDPQQLGMFTEGELMSVGMDTFIHRIDSTEVIYQPRRKRAKLIGKYLMGDLLGEGSYGKVKEVLDSETLCRRAVKILKKKKLRRIPNGEANVKKEIQLLRRLRHKNVIQLVDVLYNEEKQKMYMVMEYCVCGMQEMLDSVPEKRFPVCQAHGYFCQLIDGLEYLHSQGIVHKDIKPGNLLLTTGGTLKISDLGVAEALHPFAADDTCRTSQGSPAFQPPEIANGLDTFSGFKVDIWSAGVTLYNITTGLYPFEGDNIYKLFENIGKGSYAIPGDCGPPLSDLLKGMLEYEPAKRFSIRQIRQHSWFRKKHPPAEAPVPIPPSPDTKDRWRSMTVVPYLEDLHGADEDEDLFDIEDDIIYTQDFTVPGQVPEEEASHNGQRRGLPKAVCMNGTEAAQLSTDSRAEGRAPNPARKACSASSKIRRLSACKQQ [K403D] | 1.53 ± 0.2
MEVVDPQQLGMFTEGELMSVGMDTFIHRIDSTEVIYQPRRKRAKLIGKYLMGDLLGEGSYGKVKEVLDSETLCRRAVKILKKKKLRRIPNGEANVKKEIQLLRRLRHKNVIQLVDVLYNEEKQKMYMVMEYCVCGMQEMLDSVPEKRRPVCQAHGYFCQLIDGLEYLHSQGIVHKDIKPGNLLLTTGGTLKISDLGVAEALHPFAADDTCRTSQGSPAFQPPEIANGLDTFSGFKVDIWSAGVTLYNITTGLYPFEGDNIYKLFENIGKGSYAIPGDCGPPLSDLLKGMLEYEPAKRFSIRQIRQHSWFRKKHPPAEAPVPIPPSPDTKDRWRSMTVVPYLEDLHGADEDEDLFDIEDDIIYTQDFTVPGQVPEEEASHNGQRRGLPKAVCMNGTEAAQLSTKSRAEGRAPNPARKACSASSKIRRLSACKQQ [F148R] | -0.0906 ± 0.086
MEVVDPQQLGMFTEGELMSVGMDTFIHRIDSTEVIYQPRRKRAKLIGKYLMGDLLGEGSYGKVKEVLDSETLCRRAVKILKKKKLRRIPNGEANVKKEIQLLRRLRHKNVIQLVDVLYNEEKQKMYMVMEYCVCGMQEMLDSVPEKRFPVCQAHGYFCQLIDGLEYLHSQGIVHKDIKPGNLLLTTGGTLKISDLGVAEALHPFAADVTCRTSQGSPAFQPPEIANGLDTFSGFKVDIWSAGVTLYNITTGLYPFEGDNIYKLFENIGKGSYAIPGDCGPPLSDLLKGMLEYEPAKRFSIRQIRQHSWFRKKHPPAEAPVPIPPSPDTKDRWRSMTVVPYLEDLHGADEDEDLFDIEDDIIYTQDFTVPGQVPEEEASHNGQRRGLPKAVCMNGTEAAQLSTKSRAEGRAPNPARKACSASSKIRRLSACKQQ [D208V] | 1.06 ± 0.12
MEVVDPQQLGMFTEGELMSVGMDTFIHRIDSTEVIYQPRRKRAKLIGKYLMGDLLGEGSYGKVKEVLDSETLCRRAVKILKKKKLRRIPNGEANVKKEIQLLRRLRHKNVIQLVDVLYNEEKQKDYMVMEYCVCGMQEMLDSVPEKRFPVCQAHGYFCQLIDGLEYLHSQGIVHKDIKPGNLLLTTGGTLKISDLGVAEALHPFAADDTCRTSQGSPAFQPPEIANGLDTFSGFKVDIWSAGVTLYNITTGLYPFEGDNIYKLFENIGKGSYAIPGDCGPPLSDLLKGMLEYEPAKRFSIRQIRQHSWFRKKHPPAEAPVPIPPSPDTKDRWRSMTVVPYLEDLHGADEDEDLFDIEDDIIYTQDFTVPGQVPEEEASHNGQRRGLPKAVCMNGTEAAQLSTKSRAEGRAPNPARKACSASSKIRRLSACKQQ [M125D] | 0.704 ± 0.082
MEVVDPQQLGMFTEGELMSVGMDTFIHRIDSTEVIYQPRRKRAKLIGKYLMGDLLGEGSYGKVKEVLDSETLCRRAVKILKKKKLRRIPNGEANVKKEIQLLRRLRHKNVIQLVDVLYNEEKQKMYMVMEYCVCGMQEMLDSVPEKRFPVCQAHGYFCQLIDGLEYLHSQGIVHKDIKPGNLLLTTGGTLKISDLGVAEALHPFAADDTCRTSQGSPAFQPPEIANGLDTFSGFKVDIWSAGVTLYNITTGLYPFEGDNIYKLFENIGKGSYAIPGDCGPPLSDLLKGMLEYEPAKRFSIRQIRQHSWFRKKHPPAEAPVPIPPSPDTKDRWRSMTVVPYLEDLHGADEDEDLFDIEDDIIYTQDFTVHGQVPEEEASHNGQRRGLPKAVCMNGTEAAQLSTKSRAEGRAPNPARKACSASSKIRRLSACKQQ [P369H] | 0.727 ± 0.16
MEVVDPQQLGMFTEGELMSVGMDTFIHRIDSTEVIYQPRRKRAKLIGKYLMGDLLGEGSYGKVKEVLDSETLCRRAVKILKKKKLRRIPNGEANVKKEIQLLRRLRHKNVIQLVDVLYNEEKQKMYMVMEYCVCGMQEMLDSVPEKRFPVCQAHGYFCQLIDGLEYLHSQGIVHKDIKPGNLLLTTGGTLKISDLGVAEALHPFAADDTCRTSQGSPAFQPPEIANGLDTFSGFKVDIWSAGVTLYNITTGLYPFEGDNIYKLFENIGKGSYAIPGDCGPPLSDLLKGMLEYEPAKRFSIRQIRQHSWFRKKHPPAEAPVPIPPSPDTKDRWRSMTVVPYLEDLHGADEDEDLFDIEDDIIYTQDFTVPGQVPEEEASHNGQRRGLPKAVCMNGTEAAQLSTKSRAEGRAPNPARSACSASSKIRRLSACKQQ [K416S] | 1.55 ± 0.2
MEVVDPQQLGMFTEGELMSVGMDTFIHRIDSTEVIYQPRRKRAKLIGKYLMGDLLGEGSYGKVKEVLDSETLCRRAVKILKKKKLRRIPNGEANVKKEIQLLRRLRHKNVIQLVDVFYNEEKQKMYMVMEYCVCGMQEMLDSVPEKRFPVCQAHGYFCQLIDGLEYLHSQGIVHKDIKPGNLLLTTGGTLKISDLGVAEALHPFAADDTCRTSQGSPAFQPPEIANGLDTFSGFKVDIWSAGVTLYNITTGLYPFEGDNIYKLFENIGKGSYAIPGDCGPPLSDLLKGMLEYEPAKRFSIRQIRQHSWFRKKHPPAEAPVPIPPSPDTKDRWRSMTVVPYLEDLHGADEDEDLFDIEDDIIYTQDFTVPGQVPEEEASHNGQRRGLPKAVCMNGTEAAQLSTKSRAEGRAPNPARKACSASSKIRRLSACKQQ [L117F] | 0.858 ± 0.21
